Source: the supplement of paper PMC9732359
± gives the uncertainty stated by the source.

Assay: protein stability index of a GFP-peptide fusion (yeast GPS) (PSI 1-4); higher = more stable; sorted into four equal gates, so the index is relative within each strain
Procedure, shortened: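 Each library plasmid carries Cherry plus GFP with a tiled 17-residue yeast protein peptide fused downstream, and the pooled library was carried in yeast. Mid-log cultures in leucine-free medium were sorted into four equal gates by GFP/Cherry ratio. Reads from Illumina sequencing of PCR-amplified plasmids from each gate were assigned to strains by barcodes. Per peptide, the protein stability index was computed as the summed products of gate read frequency and gate number.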

NMLPQRQSSVGSLNATN [SNF2]
protein stability index (doa10∆): 2.8 ± 0.082 | protein stability index (pdr5∆): 3.3 ± 0.073 | protein stability index (san1∆): 2.78 ± 0.052 | protein stability index (ubr1∆): 3.08 ± 0.046

ERNNIGEICKNYELEKI [YDL116W/NUP84]
protein stability index (doa10∆): 2.91 ± 0.14 | protein stability index (pdr5∆): 2.82 ± 0.095 | protein stability index (san1∆): 2.94 ± 0.09 | protein stability index (ubr1∆): 2.62 ± 0.059

VNAPLPTPFKVDDNVDF [RPN2]
protein stability index (doa10∆): 2.91 ± 0.077 | protein stability index (pdr5∆): 2.75 ± 0.051 | protein stability index (san1∆): 2.74 ± 0.08 | protein stability index (ubr1∆): 2.96 ± 0.086

VNSYRLNPNEYFSVTTA [SWI3]
protein stability index (pdr5∆): 2.84 ± 0.2 | protein stability index (san1∆): 2.3 ± 0.26 | protein stability index (ubr1∆): 2.78 ± 0.22

IVNNDLPTTVVSNPGDN [MED2]
protein stability index (doa10∆): 2.84 ± 0.051 | protein stability index (pdr5∆): 2.96 ± 0.052 | protein stability index (san1∆): 2.82 ± 0.052 | protein stability index (ubr1∆): 3.02 ± 0.033

ILYSFKLSGKLLKEEKI [YML103C/NUP188]
protein stability index (doa10∆): 1.4 ± 0.059 | protein stability index (pdr5∆): 1.6 ± 0.063 | protein stability index (san1∆): 2.11 ± 0.1 | protein stability index (ubr1∆): 2.49 ± 0.1

QREDKLKSHYYQTCKNS [SMC2]
protein stability index (doa10∆): 1.24 ± 0.073 | protein stability index (pdr5∆): 1.25 ± 0.057 | protein stability index (san1∆): 1.63 ± 0.071 | protein stability index (ubr1∆): 1.42 ± 0.054

TDLRFQSSAIGALQESV [HHT1]
protein stability index (doa10∆): 1.32 ± 0.13 | protein stability index (pdr5∆): 1.41 ± 0.13 | protein stability index (san1∆): 1.32 ± 0.17 | protein stability index (ubr1∆): 1.32 ± 0.23

IFLQQFLQELLKKVQQQ [SWI1]
protein stability index (doa10∆): 2.94 ± 0.098 | protein stability index (pdr5∆): 2.37 ± 0.12 | protein stability index (san1∆): 2.56 ± 0.11 | protein stability index (ubr1∆): 2.5 ± 0.13

AKLRKELVETSEVRKAV [FAS2]
protein stability index (doa10∆): 2.7 ± 0.16 | protein stability index (ubr1∆): 1.38 ± 0.25

MSLSVAEKSYLYDSLAS [RRP42]
protein stability index (pdr5∆): 1.64 ± 0.18

KVAPAPFGAKSTKSNKA [RPL8B]
protein stability index (doa10∆): 2.6 ± 0.085 | protein stability index (pdr5∆): 2.78 ± 0.073 | protein stability index (san1∆): 2.74 ± 0.061 | protein stability index (ubr1∆): 2.7 ± 0.043

NKVQIMIATNVAARGLD [PRP28]
protein stability index (doa10∆): 1.45 ± 0.061 | protein stability index (pdr5∆): 1.5 ± 0.078 | protein stability index (san1∆): 1.43 ± 0.15 | protein stability index (ubr1∆): 1.19 ± 0.055

TKHLMPQDLTFNAGSNP [RPB7]
protein stability index (pdr5∆): 3.62 ± 0.2 | protein stability index (san1∆): 3.22 ± 0.26 | protein stability index (ubr1∆): 2.79 ± 0.24

ITSFGFGQKGGQAIVVH [FAS2]
protein stability index (doa10∆): 1.28 ± 0.074 | protein stability index (pdr5∆): 1.44 ± 0.036 | protein stability index (san1∆): 1.52 ± 0.088 | protein stability index (ubr1∆): 1.69 ± 0.046

GSIGSRKYSFNYSSLPS [YAR002W/NUP60]
protein stability index (doa10∆): 1.95 ± 0.059 | protein stability index (pdr5∆): 2.39 ± 0.062 | protein stability index (san1∆): 2.12 ± 0.081 | protein stability index (ubr1∆): 1.65 ± 0.039

FGQDVSPMINSTSSGKV [SNM1]
protein stability index (doa10∆): 2.81 ± 0.1 | protein stability index (pdr5∆): 3.32 ± 0.077 | protein stability index (san1∆): 2.74 ± 0.067 | protein stability index (ubr1∆): 3.02 ± 0.057

IQAVFCLTKFQDEEQTE [YCG1]
protein stability index (doa10∆): 2.23 ± 0.057 | protein stability index (pdr5∆): 2.24 ± 0.062 | protein stability index (san1∆): 2.64 ± 0.057 | protein stability index (ubr1∆): 2.82 ± 0.06

FIDHHAAIRQPTRYVLI [POP1]
protein stability index (doa10∆): 1.72 ± 0.066 | protein stability index (pdr5∆): 2.08 ± 0.073 | protein stability index (san1∆): 1.77 ± 0.098 | protein stability index (ubr1∆): 1.4 ± 0.047

NSADAAYAQVEIQPRAN [FAS2]
protein stability index (doa10∆): 2.82 ± 0.054 | protein stability index (pdr5∆): 2.76 ± 0.065 | protein stability index (san1∆): 2.21 ± 0.061 | protein stability index (ubr1∆): 2.79 ± 0.048

IFKGIGGNFKDLSTLVH [GAL11]
protein stability index (doa10∆): 2.07 ± 0.071 | protein stability index (pdr5∆): 1.74 ± 0.042 | protein stability index (san1∆): 1.83 ± 0.073 | protein stability index (ubr1∆): 1.85 ± 0.067

VTTKDDLSGADIQAMCT [RPT2]
protein stability index (doa10∆): 3.15 ± 0.07 | protein stability index (pdr5∆): 3.3 ± 0.09 | protein stability index (san1∆): 3.28 ± 0.038 | protein stability index (ubr1∆): 3.35 ± 0.06

ISTYISTDELVGSPLTV [POP8]
protein stability index (doa10∆): 1.49 ± 0.13 | protein stability index (pdr5∆): 2.6 ± 0.1 | protein stability index (san1∆): 2.27 ± 0.16 | protein stability index (ubr1∆): 2.2 ± 0.081

SGELLQGIVRVYSKQAT [MCD1]
protein stability index (doa10∆): 1.82 ± 0.047 | protein stability index (pdr5∆): 2.17 ± 0.056 | protein stability index (san1∆): 2.22 ± 0.058 | protein stability index (ubr1∆): 1.76 ± 0.049

SLVALGIDPQDLKKLNL [CDC53]
protein stability index (doa10∆): 2.84 ± 0.068 | protein stability index (pdr5∆): 2.72 ± 0.066 | protein stability index (san1∆): 2.79 ± 0.049 | protein stability index (ubr1∆): 2.25 ± 0.04

STSSGKVSYAVKKPQKS [SNM1]
protein stability index (doa10∆): 2.04 ± 0.13 | protein stability index (pdr5∆): 2.76 ± 0.1 | protein stability index (san1∆): 2.01 ± 0.17 | protein stability index (ubr1∆): 3.02 ± 0.16

GKKLTDEINTAQDKWHL [RET1]
protein stability index (doa10∆): 3.22 ± 0.1 | protein stability index (pdr5∆): 3.18 ± 0.084 | protein stability index (san1∆): 3.09 ± 0.054 | protein stability index (ubr1∆): 2.95 ± 0.13

VQELLKVLNEISKTTLT [RPN3]
protein stability index (doa10∆): 3.1 ± 0.15 | protein stability index (pdr5∆): 3.29 ± 0.074 | protein stability index (san1∆): 3.17 ± 0.055 | protein stability index (ubr1∆): 3.39 ± 0.071

PNISHSNIDYQTLLANS [SNF2]
protein stability index (doa10∆): 3.33 ± 0.17 | protein stability index (pdr5∆): 2.7 ± 0.18 | protein stability index (san1∆): 2.58 ± 0.22 | protein stability index (ubr1∆): 2.82 ± 0.11

GKTIVVKDLGQGLKLAK [SMC3]
protein stability index (doa10∆): 2.9 ± 0.15 | protein stability index (pdr5∆): 2.92 ± 0.15 | protein stability index (san1∆): 2.45 ± 0.16 | protein stability index (ubr1∆): 2.81 ± 0.067

TKTILSGTDGSTIGILL [SRP72]
protein stability index (doa10∆): 3 ± 0.064 | protein stability index (pdr5∆): 2.81 ± 0.062 | protein stability index (san1∆): 3.06 ± 0.084 | protein stability index (ubr1∆): 3.01 ± 0.065

IIELENINAKMETRINI [YIL149C/MLP2]
protein stability index (doa10∆): 3.06 ± 0.091 | protein stability index (pdr5∆): 2.63 ± 0.11 | protein stability index (san1∆): 2.5 ± 0.069 | protein stability index (ubr1∆): 2.62 ± 0.063

EPGVLNTGDGSISTYKD [ECM29]
protein stability index (doa10∆): 3.28 ± 0.15 | protein stability index (pdr5∆): 3.22 ± 0.15

PKELGGLGMISASHILI [PRP8]
protein stability index (doa10∆): 2.36 ± 0.072 | protein stability index (pdr5∆): 2.67 ± 0.053 | protein stability index (san1∆): 2.14 ± 0.084 | protein stability index (ubr1∆): 2.41 ± 0.047

AIQKKDNKDKEGNAGGD [YOR098C/NUP1]
protein stability index (doa10∆): 3.44 ± 0.17 | protein stability index (pdr5∆): 3.32 ± 0.18 | protein stability index (san1∆): 3.25 ± 0.1 | protein stability index (ubr1∆): 3.44 ± 0.11

PKFDVGALMALHGEGSG [RPS1A]
protein stability index (doa10∆): 2.01 ± 0.17 | protein stability index (pdr5∆): 2.26 ± 0.092 | protein stability index (san1∆): 2.23 ± 0.16 | protein stability index (ubr1∆): 1.57 ± 0.089

ALLRENQDSVKTYALES [RPN2]
protein stability index (doa10∆): 3.35 ± 0.15 | protein stability index (pdr5∆): 2.56 ± 0.16 | protein stability index (san1∆): 2.56 ± 0.12 | protein stability index (ubr1∆): 2.94 ± 0.1

IKDLQRAINKVLCTRLR [SIR2]
protein stability index (doa10∆): 1.78 ± 0.063 | protein stability index (pdr5∆): 1.33 ± 0.06 | protein stability index (san1∆): 1.18 ± 0.11 | protein stability index (ubr1∆): 1.54 ± 0.045

EDGRTLSDYNIQKESTL [RPS31]
protein stability index (doa10∆): 2.92 ± 0.081 | protein stability index (pdr5∆): 3.02 ± 0.066 | protein stability index (san1∆): 3.05 ± 0.065 | protein stability index (ubr1∆): 3.01 ± 0.09

HHSWSQSDLEIITQYVF [ARP9]
protein stability index (doa10∆): 2.29 ± 0.051 | protein stability index (pdr5∆): 2.82 ± 0.056 | protein stability index (san1∆): 2.73 ± 0.056 | protein stability index (ubr1∆): 3.08 ± 0.044

AILRQQQQMANNNGNPG [GAL11]
protein stability index (doa10∆): 2.77 ± 0.12 | protein stability index (pdr5∆): 3.19 ± 0.13 | protein stability index (san1∆): 2.7 ± 0.12 | protein stability index (ubr1∆): 3.17 ± 0.05

PYAIVKGKARLGTLVNQ [RPL8A]
protein stability index (doa10∆): 2.54 ± 0.1 | protein stability index (pdr5∆): 2.81 ± 0.093 | protein stability index (san1∆): 2.74 ± 0.16 | protein stability index (ubr1∆): 2.73 ± 0.073

TDLMSIVQELLDKNLIK [RPC34]
protein stability index (doa10∆): 3.39 ± 0.21 | protein stability index (pdr5∆): 2.74 ± 0.17 | protein stability index (ubr1∆): 3.15 ± 0.14

LFLTAPDSCNMQEKAAH [YCS4]
protein stability index (pdr5∆): 2.67 ± 0.24 | protein stability index (san1∆): 2.86 ± 0.12 | protein stability index (ubr1∆): 2.92 ± 0.11

DELILEAKERYTDRDQD [NNF1]
protein stability index (pdr5∆): 3.68 ± 0.27 | protein stability index (san1∆): 3.58 ± 0.1 | protein stability index (ubr1∆): 3.52 ± 0.2

EGSKSHPFGHALVAGIE [RPL27A]
protein stability index (doa10∆): 2.73 ± 0.061 | protein stability index (pdr5∆): 2.83 ± 0.069 | protein stability index (san1∆): 2.59 ± 0.071 | protein stability index (ubr1∆): 2.76 ± 0.047

SLEGCVEMAWIMGFISY [FAS2]
protein stability index (doa10∆): 1.97 ± 0.084 | protein stability index (pdr5∆): 1.86 ± 0.061 | protein stability index (san1∆): 2.35 ± 0.086 | protein stability index (ubr1∆): 2.27 ± 0.078

QRTCLMTVTFLILAGQV [YCS4]
protein stability index (doa10∆): 1.19 ± 0.052 | protein stability index (pdr5∆): 1.36 ± 0.05 | protein stability index (san1∆): 1.27 ± 0.099 | protein stability index (ubr1∆): 1.43 ± 0.043

NAIIEANLGKYGILSID [RPL7A]
protein stability index (doa10∆): 2.87 ± 0.17 | protein stability index (pdr5∆): 2.97 ± 0.14 | protein stability index (san1∆): 2.84 ± 0.094 | protein stability index (ubr1∆): 2.89 ± 0.15

SQLKKTKAQQKTAEQIA [RPL7B]
protein stability index (doa10∆): 2.9 ± 0.085 | protein stability index (pdr5∆): 2.92 ± 0.11 | protein stability index (san1∆): 2.95 ± 0.067 | protein stability index (ubr1∆): 2.86 ± 0.048

HPAHVMWSVARAGQRGY [RPL3]
protein stability index (doa10∆): 1.68 ± 0.2 | protein stability index (pdr5∆): 1.83 ± 0.22 | protein stability index (san1∆): 1.5 ± 0.13 | protein stability index (ubr1∆): 1.24 ± 0.12

AQQAQQAQQAQQAQARL [SNF2]
protein stability index (doa10∆): 3.08 ± 0.051 | protein stability index (pdr5∆): 3.24 ± 0.048 | protein stability index (san1∆): 3.13 ± 0.035 | protein stability index (ubr1∆): 3.2 ± 0.045

NPIIENNVDNKYKSGGK [SSN2]
protein stability index (doa10∆): 2.92 ± 0.052 | protein stability index (pdr5∆): 3.01 ± 0.041 | protein stability index (san1∆): 3.04 ± 0.043 | protein stability index (ubr1∆): 3.07 ± 0.041

ARRRQPTDQNNQSNLNG [SNF2]
protein stability index (doa10∆): 2.88 ± 0.12 | protein stability index (pdr5∆): 3.25 ± 0.19 | protein stability index (san1∆): 3.11 ± 0.07 | protein stability index (ubr1∆): 3.24 ± 0.16
